This is an account of results in US20040086528A1 (PROGENICS PHARMACEUTICALS, published 2004).

The target in one assay is T1, SF162 gp120 (HIV-1 SF162, UniProt P19550 32-502).
T1 construct: domain: gp120; also called SF 162 (B)
Nature of the assay: 125I-MIP-1β competition on activated CD4+ T cells.

For another assay, the target named is T2, soluble CD4 (UniProt P01730 26-394).
T2 construct: also called sCD4
Briefly: 125I-MIP-1β competition on activated CD4+ T cells.

Protocol for SF162 gp120: (§1) PBMCs were isolated from blood donors by Ficoll-Hypaque centrifugation, and stimulated for 2-3 days with phytohaemagglutnin (5 μg ml⁻¹) and IL-2 (100 U ml⁻¹) (Roche). CD4⁺ T cells were purified from the activated PBMCs by positive selection using anti-CD4 immunomagnetic beads (Dynal Inc.). […] The cells were screened for CCR-5-defective alleles(14), and only cells from wild-type donors were used (except when specified).
(§2) Unlabelled ligand or gp120 (mixed with monoclonal antibodies when appropriate) was added to the cells immediately before radiolabelled ligand was added. Anti-CD4 monoclonal antibodies were added to the cells simultaneously with gp120. These cells were then separated from unbound ligand by centrifugation (60 s, 14, 000 g) through oil (80% silicone oil, Aldrich; 20% mineral oil, Sigma), and the radioactivity in the cell pellet was determined by gamma counting. […] Each experiment was repeated at least twice using cells from different donors.
Protocol for soluble CD4: as §1, §2

B1: chemokine receptor C-C CKR-5 (human) (receptor)
chain: not shown
notes: whole, on cells; also called CCR-5; CCR5
Consider B1, for which the binding result with SF162 gp120 is on record as “binds”; with soluble CD4 it was “no binding (tested: 50 µg ml^-1)”.
